Source: US20240383985A1 (QURE BIOTECHNOLOGY SHANGHAI, published 2024)

molecular target: T1, CD33 naturally expressed on HL60 cells (human, UniProt P20138 18-364); assay: flow cytometry on HL60 cells, PE-anti human Fc detection
T1 construct: whole, on cells
Procedure: Experimental method: HL60 cells were cultured in a 5% CO₂ incubator at 37° C. After trypsin digestion, cells were collected and inoculated into 96-well plates at 100,000 cells per well. Then the plate was subjected to blocking on ice for 1 hour with 2% FBS/PBS. The cells were incubated with different concentrations of trifunctional proteins and control protein on ice for 1 hour, washed with PBS for 3 times, and incubated with PE-anti human Fc (1:200 dilution). The cells were washed with PBS for 3 times, and resuspended with 200 μl PBS. The mean fluorescence value was read by FACS and Graphpad prism software was used to analyze the results.

T1 sequence (P20138 18-364): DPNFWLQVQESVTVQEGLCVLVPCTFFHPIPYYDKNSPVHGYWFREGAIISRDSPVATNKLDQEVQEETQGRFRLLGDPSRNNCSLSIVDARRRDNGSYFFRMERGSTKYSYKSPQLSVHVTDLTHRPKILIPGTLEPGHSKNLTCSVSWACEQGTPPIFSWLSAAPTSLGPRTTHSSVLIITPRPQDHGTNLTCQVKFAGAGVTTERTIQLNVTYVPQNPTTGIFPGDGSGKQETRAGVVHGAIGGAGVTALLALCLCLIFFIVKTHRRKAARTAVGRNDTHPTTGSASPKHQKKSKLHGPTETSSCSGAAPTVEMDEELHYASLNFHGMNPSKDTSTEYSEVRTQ

binding result	Binder
binds	CD33/CD16A/IL-15 trifunctional fusion protein QP42914285 (FC with L234A/L235A mutation for eliminating function) (bispecific antibody, Four-chain heterodimer: anti-CD16A Fab arm and anti-CD33 Fv-IL-15/IL-15Ra arm) light: SYVLTQPSSVSVAPGQTATISCGGHNIGSKNVHWYQQRPGQSPVLVIYQDNKRPSGIPERFSGSNSGNTATLTISGTQAMDEADYYCQVWDNYSVLFGGGTKLTVLRTVAAPSVFIFPPSDEQLKSGTASVVCLLNNFYPREAKVQWKVDNALQSGNSQESVTEQDSKDSTYSLSSTLTLSKADYEKHKVYACEVTHQGLSSPVTKSFNRGEC heavy: QVQLVQSGAEVKKPGESLKVSCKASGYTFTSYYMHWVRQAPGQGLEWMGIINPSGGSTSYAQKFQGRVTMTRDTSTSTVYMELSSLRSEDTAVYYCARGSAYYYDFADYWGQGTLVTVSSASTKGPSVFPLAPSSKSTSGGTAALGCLVKDYFPEPVTVSWNSGALTSGVHTFPAVLQSSGLYSLSSVVTVPSSSLGTQTYICNVNHKPSNTKVDKKVEPKSCDKTHTCPPCPAPEAAGGPSVFLFPPKPKDTLMISRTPEVTCVVVDVSHEDPEVKFNWYVDGVEVHNAKTKPREEQYNSTYRVVSVLTVLHQDWLNGKEYKCKVSNKALPAPIEKTISKAKGQPREPQVYTLPPSREEMTKNQVSLSCAVKGFYPSDIAVEWESNGQPENNYKTTPPVLDSDGSFFLVSKLTVDKSRWQQGNVFSCSVMHEALHNRYTQKSLSLSPGKGGSHHHHHH chain 1: not shown chain 2: not shown
binds	CD33 antibody IgG1 wt subtype QP41154116 (antibody, V domains shown, IgG1 wild-type control antibody; also called antiCD33 antibody) VH: QVQLVQSGAEVKKPGESVKVSCKASGYTFTNYGMNWVKQAPGQGLEWMGWINTYTGEPTYADKFQGRVTMTTDTSTSTAYMEIRNLGGDDTAVYYCARWSWSDGYYVYFDYWGQGTSVTVSS VL: DIVMTQSPDSLTVSLGERTTINCKSSQSVLDSSTNKNSLAWYQQKPGQPPKLLLSWASTRESGIPDRFSGSGSGTDFTLTIDSPQPEDSATYYCQQSAHFPITFGQGTRLEIKR
binds	CD33/CD16A/IL-15 trifunctional fusion protein QP743745 (FC wild-type) (bispecific antibody) chain 1: not shown chain 2: not shown light: DIVMTQSPDSLTVSLGERTTINCKSSQSVLDSSTNKNSLAWYQQKPGQPPKLLLSWASTRESGIPDRFSGSGSGTDFTLTIDSPQPEDSATYYCQQSAHFPITFGQGTRLEIKRTVAAPSVFIFPPSDEQLKSGTASVVCLLNNFYPREAKVQWKVDNALQSGNSQESVTEQDSKDSTYSLSSTLTLSKADYEKHKVYACEVTHQGLSSPVTKSFNRGEC heavy: QVQLVQSGAEVKKPGESVKVSCKASGYTFTNYGMNWVKQAPGQGLEWMGWINTYTGEPTYADKFQGRVTMTTDTSTSTAYMEIRNLGGDDTAVYYCARWSWSDGYYVYFDYWGQGTSVTVSSASTKGPSVFPLAPSSKSTSGGTAALGCLVKDYFPEPVTVSWNSGALTSGVHTFPAVLQSSGLYSLSSVVTVPSSSLGTQTYICNVNHKPSNTKVDKKVEPKSCDKTHTCPPCPAPELLGGPSVFLFPPKPKDTLMISRTPEVTCVVVDVSHEDPEVKFNWYVDGVEVHNAKTKPREEQYNSTYRVVSVLTVLHQDWLNGKEYKCKVSNKALPAPIEKTISKAKGQPREPQVYTLPPSREEMTKNQVSLSCAVKGFYPSDIAVEWESNGQPENNYKTTPPVLDSDGSFFLVSKLTVDKSRWQQGNVFSCSVMHEALHNRYTQKSLSLSPGK
binds	CD33/CD16A bispecific antibody QP4115777778 (FC wild-type) (bispecific antibody, human IgG1, kappa, also called QP411577778; CD16A/CD33 bispecific antibody) not shown heavy: QVQLVQSGAEVKKPGESVKVSCKASGYTFTNYGMNWVKQAPGQGLEWMGWINTYTGEPTYADKFQGRVTMTTDTSTSTAYMEIRNLGGDDTAVYYCARWSWSDGYYVYFDYWGQGTSVTVSSASTKGPSVFPLAPSSKSTSGGTAALGCLVKDYFPEPVTVSWNSGALTSGVHTFPAVLQSSGLYSLSSVVTVPSSSLGTQTYICNVNHKPSNTKVDKKVEPKSCDKTHTCPPCPAPELLGGPSVFLFPPKPKDTLMISRTPEVTCVVVDVSHEDPEVKFNWYVDGVEVHNAKTKPREEQYNSTYRVVSVLTVLHQDWLNGKEYKCKVSNKALPAPIEKTISKAKGQPREPQVYTLPPSREEMTKNQVSLSCAVKGFYPSDIAVEWESNGQPENNYKTTPPVLDSDGSFFLVSKLTVDKSRWQQGNVFSCSVMHEALHNRYTQKSLSLSPGKGGSHHHHHH light: DIVMTQSPDSLTVSLGERTTINCKSSQSVLDSSTNKNSLAWYQQKPGQPPKLLLSWASTRESGIPDRFSGSGSGTDFTLTIDSPQPEDSATYYCQQSAHFPITFGQGTRLEIKRTVAAPSVFIFPPSDEQLKSGTASVVCLLNNFYPREAKVQWKVDNALQSGNSQESVTEQDSKDSTYSLSSTLTLSKADYEKHKVYACEVTHQGLSSPVTKSFNRGEC
binds	CD33/CD16A/IL-15 trifunctional fusion protein QP43394340 (FC with L234A/L235A mutation for eliminating function) (bispecific antibody, Four-chain heterodimer, hIgG1 Fc LALA; plasmid names mention Flag and His tags) chain 1: not shown chain 2: not shown light: DIVMTQSPDSLTVSLGERTTINCKSSQSVLDSSTNKNSLAWYQQKPGQPPKLLLSWASTRESGIPDRFSGSGSGTDFTLTIDSPQPEDSATYYCQQSAHFPITFGQGTRLEIKRTVAAPSVFIFPPSDEQLKSGTASVVCLLNNFYPREAKVQWKVDNALQSGNSQESVTEQDSKDSTYSLSSTLTLSKADYEKHKVYACEVTHQGLSSPVTKSFNRGEC heavy: QVQLVQSGAEVKKPGESVKVSCKASGYTFTNYGMNWVKQAPGQGLEWMGWINTYTGEPTYADKFQGRVTMTTDTSTSTAYMEIRNLGGDDTAVYYCARWSWSDGYYVYFDYWGQGTSVTVSSASTKGPSVFPLAPSSKSTSGGTAALGCLVKDYFPEPVTVSWNSGALTSGVHTFPAVLQSSGLYSLSSVVTVPSSSLGTQTYICNVNHKPSNTKVDKKVEPKSCDKTHTCPPCPAPEAAGGPSVFLFPPKPKDTLMISRTPEVTCVVVDVSHEDPEVKFNWYVDGVEVHNAKTKPREEQYNSTYRVVSVLTVLHQDWLNGKEYKCKVSNKALPAPIEKTISKAKGQPREPQVYTLPPSREEMTKNQVSLSCAVKGFYPSDIAVEWESNGQPENNYKTTPPVLDSDGSFFLVSKLTVDKSRWQQGNVFSCSVMHEALHNRYTQKSLSLSPGK
